US20170114146A1 (Hoffmann-La Roche, published 2017)

Assays:
Test in all cases: cell-based or functional assay
[1] = molecular target: T1, CD33 (myeloid cell surface antigen CD33) on human AML cell lines HL-60 and HEL (human, UniProt P20138 18-364)
[2] = molecular target: CD3 antigen expressed on Jurkat-NFAT reporter cells (human, UniProt P07766 23-207)
[3] = molecular target: T1, CD33 (myeloid cell surface antigen …); remark: listed apart in the source

T1 sequence (P20138 18-364): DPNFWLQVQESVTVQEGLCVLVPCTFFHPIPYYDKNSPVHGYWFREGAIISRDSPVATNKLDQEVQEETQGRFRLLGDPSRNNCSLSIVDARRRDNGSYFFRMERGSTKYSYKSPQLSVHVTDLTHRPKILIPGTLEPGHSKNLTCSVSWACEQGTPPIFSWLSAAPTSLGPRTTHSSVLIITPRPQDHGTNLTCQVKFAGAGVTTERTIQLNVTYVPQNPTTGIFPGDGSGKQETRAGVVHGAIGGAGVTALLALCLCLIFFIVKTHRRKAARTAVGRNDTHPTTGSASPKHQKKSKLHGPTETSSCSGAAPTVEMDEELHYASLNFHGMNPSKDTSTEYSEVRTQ
Chain of CD3 antigen expressed on Jurkat-NFAT reporter cells (P07766 23-207 limits assumed): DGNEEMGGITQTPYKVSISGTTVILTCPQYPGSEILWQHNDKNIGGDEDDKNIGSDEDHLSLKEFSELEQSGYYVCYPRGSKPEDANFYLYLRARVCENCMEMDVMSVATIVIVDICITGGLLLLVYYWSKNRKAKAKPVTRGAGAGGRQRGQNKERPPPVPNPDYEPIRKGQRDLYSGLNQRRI

B1: CD33 CD3 TCB molecule B ("2+1 IgG CrossFab, inverted" with charge modifications, CD33 binders based on anti-CD33 antibody 2) (bispecific antibody)
chain 1: EVQLLESGGGLVQPGGSLRLSCAASGFTFSTYAMNWVRQAPGKGLEWVSRIRSKYNNYATYYADSVKGRFTISRDDSKNTLYLQMNSLRAEDTAVYYCVRHGNFGNSYVSWFAYWGQGTLVTVSSASVAAPSVFIFPPSDEQLKSGTASVVCLLNNFYPREAKVQWKVDNALQSGNSQESVTEQDSKDSTYSLSSTLTLSKADYEKHKVYACEVTHQGLSSPVTKSFNRGEC
chain 2: EVQLVQSGAEVKKPGSSVKVSCKASGYTITDSNIHWVRQAPGQSLEWIGYIYPYNGGTDYNQKFKNRATLTVDNPTNTAYMELSSLRSEDTAFYYCVNGNPWLAYWGQGTLVTVSSASTKGPSVFPLAPSSKSTSGGTAALGCLVEDYFPEPVTVSWNSGALTSGVHTFPAVLQSSGLYSLSSVVTVPSSSLGTQTYICNVNHKPSNTKVDEKVEPKSCDKTHTCPPCPAPEAAGGPSVFLFPPKPKDTLMISRTPEVTCVVVDVSHEDPEVKFNWYVDGVEVHNAKTKPREEQYNSTYRVVSVLTVLHQDWLNGKEYKCKVSNKALGAPIEKTISKAKGQPREPQVCTLPPSRDELTKNQVSLSCAVKGFYPSDIAVEWESNGQPENNYKTTPPVLDSDGSFFLVSKLTVDKSRWQQGNVFSCSVMHEALHNHYTQKSLSLSP
chain 3: not shown
chain 4: DIQLTQSPSTLSASVGDRVTITCRASESLDNYGIRFLTWFQQKPGKAPKLLMYAASNQGSGVPSRFSGSGSGTEFTLTISSLQPDDFATYYCQQTKEVPWSFGQGTKVEVKRTVAAPSVFIFPPSDRKLKSGTASVVCLLNNFYPREAKVQWKVDNALQSGNSQESVTEQDSKDSTYSLSSTLTLSKADYEKHKVYACEVTHQGLSSPVTKSFNRGEC
EC50, activation of Jurkat-NFAT reporter cells via CD3 (luminescence, 5 h, HL-60 target cells, E:T 2.5:1) [1]: 0.0043 nM
EC50, activation of Jurkat-NFAT reporter cells via CD3 (luminescence, 5 h, HL-60 target cells, E:T 2.5:1) [2]: 0.0043 nM
EC50 [pM] 42 h, T-cell mediated killing of HL-60 tumor cells (LDH release, human pan T cells, E:T 5:1) [3]: 18.5 pM

B2: CD33 CD3 TCB molecule A ("2+1 IgG CrossFab, inverted" with charge modifications, CD33 binders based on anti-CD33 antibody 1) (bispecific antibody)
chain 1: QVQLVQSGAEVKKPGSSVKVSCKASGYTFTDYNMHWVRQAPGQGLEWIGYIYPYNGGTGYNQKFKSKATITADESTNTAYMELSSLRSEDTAVYYCARGRPAMDYWGQGTLVTVSSASTKGPSVFPLAPSSKSTSGGTAALGCLVEDYFPEPVTVSWNSGALTSGVHTFPAVLQSSGLYSLSSVVTVPSSSLGTQTYICNVNHKPSNTKVDEKVEPKSCDKTHTCPPCPAPEAAGGPSVFLFPPKPKDTLMISRTPEVTCVVVDVSHEDPEVKFNWYVDGVEVHNAKTKPREEQYNSTYRVVSVLTVLHQDWLNGKEYKCKVSNKALGAPIEKTISKAKGQPREPQVCTLPPSRDELTKNQVSLSCAVKGFYPSDIAVEWESNGQPENNYKTTPPVLDSDGSFFLVSKLTVDKSRWQQGNVFSCSVMHEALHNHYTQKSLSLSP
chain 2: not shown
chain 3: EVQLLESGGGLVQPGGSLRLSCAASGFTFSTYAMNWVRQAPGKGLEWVSRIRSKYNNYATYYADSVKGRFTISRDDSKNTLYLQMNSLRAEDTAVYYCVRHGNFGNSYVSWFAYWGQGTLVTVSSASVAAPSVFIFPPSDEQLKSGTASVVCLLNNFYPREAKVQWKVDNALQSGNSQESVTEQDSKDSTYSLSSTLTLSKADYEKHKVYACEVTHQGLSSPVTKSFNRGEC
chain 4: DIQMTQSPSSLSASVGDRVTITCRASESVDNYGISFMNWFQQKPGKAPKLLIYAASNQGSGVPSRFSGSGSGTDFTLTISSLQPDDFATYYCQQSKEVPWTFGQGTKVEIKRTVAAPSVFIFPPSDRKLKSGTASVVCLLNNFYPREAKVQWKVDNALQSGNSQESVTEQDSKDSTYSLSSTLTLSKADYEKHKVYACEVTHQGLSSPVTKSFNRGEC
EC50, activation of Jurkat-NFAT reporter cells via CD3 (luminescence, 5 h, HL-60 target cells, E:T 2.5:1) [1]: 0.0794 nM
EC50, activation of Jurkat-NFAT reporter cells via CD3 (luminescence, 5 h, HL-60 target cells, E:T 2.5:1) [2]: 0.0794 nM
EC50 [pM] 42 h, T-cell mediated killing of HL-60 tumor cells (LDH release, human pan T cells, E:T 5:1) [3]: 19.8 pM
